Results: US6774212 (Bristol-Myers Squibb, dated 2004)
Square brackets hold non-standard residues; d marks the D form. Ends that are not written are not given here. * marks the point of attachment. boroAlg = alpha-aminoboronic acid analogue of L-2-amino-4-pentenoic acid (1-amino-3-butenylboronic acid, -B(OH)2 in place of -COOH), C=CC[C@H](N*)B(O)O

Target: T1, HCV NS3 protease catalytic domain (amino acids 1 to 192), genotype 1a (Hepatitis C virus, genotype 1a, UniProt P26664 1027-1218)
T1 construct: domain: NS3 protease catalytic domain (amino acids 1 to 192); Expressed in E. coli BL21(DE3) and purified to >95%; also called HCV NS3 1a protease; Hepatitis C Virus NS3 protease
T1 sequence (P26664 1027-1218): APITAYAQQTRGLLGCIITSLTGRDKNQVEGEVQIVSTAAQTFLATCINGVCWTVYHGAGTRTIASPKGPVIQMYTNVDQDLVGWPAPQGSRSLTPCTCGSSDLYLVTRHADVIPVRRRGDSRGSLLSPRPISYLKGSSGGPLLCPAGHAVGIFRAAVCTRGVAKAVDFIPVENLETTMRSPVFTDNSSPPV
Test: active-site titration of NS3 protease; linear plots of Activity vs. [inhibitor], protease concentration from the x-intercept

B1: H-Asp-Glu-Val-Val-Pro-boroAlg-OH (peptide)
peptide: H-DEVVP[boroAlg]
notes: Peptide boronic acid used as titrant to determine the protease concentration
binding result: binds
